# Test results from article doi:10.1101/2022.02.13.480273.
# B1: ARL3^T30N (bacterially expressed) (natural protein)
# chain: MGLLSLIRGLKKKEGEARILVLGLDNAGKNTILKALSEEDITTITPTQGFNIKSLSRDGFNLKIWDIGGQKSIRPYWRNYFDQTDALIYVIDSADSKRLSESEFELTELLQEEKMTGVPLLVFANKQDLVGALAADEIASTLDLTSIRDRPWQIQACSAKQGTGLKEGMEWMMKQVK
# Target: GST-RABL2^S37N (Chlamydomonas reinhardtii)
# Assay: SEC
binder,measurement,value
B1,stoichiometry N,1
